Numbering of substitutions follows the chain as printed. Each block holds one binder with its values, some of them ahead of it.
Columns and labels:
[1] = target: T1, monovalent hVISTA-ECD (amino acids 32-193 of SEQ ID NO: 1 with a 7xHis tail) (human, UniProt Q9H7M9 33-193); assay: SPR 37C, pH 7.4 over pH 6.0
T1 construct: analyte of the SPR assays; also called huVISTA-His; human VISTA-ECD
Description: Human VISTA binding kinetics of P1-061029 (“ ‘029”), P1-068761 (“ ‘761”) and P1-068767 (“ ‘767”) (as IgG1.3 antibodies) were measured at pH values between pH 7.4 and pH 6.0, i.e., at pH 6.9 and pH 6.45 using a Biacore® T100 instrument (GE Healthcare). […] Antibodies were diluted to 25 nM in PBST pH 7.4, and were captured across active biosensor flow cells at 5 ul/min for 45 seconds. A concentration series of 100 - 0.78 nM monovalent hVISTA-ECD (SEQ ID NO: 325) was prepared pH 7.4, 6.9, 6.45 and 6.0 running buffers, and was injected over the captured antibodies at 40 ul/min to measure association and dissociation. Two 15 second injections of 10 mM glycine pH 1.5 were used to regenerate the Protein A capture surface between assay cycles. Rate constants ka (kₒₙ) and kd (koff) were derived from reference flow cell and 0 nM blank-subtracted sensorgrams, and were fit to a 1:1 binding model in Biacore® T200 Evaluation Software v.2.0. The affinity constant, KD was calculated as the ratio of rate constants koff/kₒₙ for each VISTA antibody. Ratios of koff and KD at each pH relative to pH 6.0 were calculated to evaluate how the VISTA koff and KD change as the buffer pH shifts to physiological, and are shown in Table 7. […] As the buffer pH shifts from acidic to physiological, VISTA koff and KD both weaken for ‘761 and ‘767. […]

[2] = target: T1, monovalent hVISTA-ECD (amino acids …); assay: SPR 37C, Ab on Protein A, hVISTA-ECD 100-0.78 nM, pH 7.4
Description: (§1) Human VISTA binding kinetics of P1-061029 (“ ‘029”), P1-068761 (“ ‘761”) and P1-068767 (“ ‘767”) (as IgG1.3 antibodies) were measured at pH values between pH 7.4 and pH 6.0, i.e., at pH 6.9 and pH 6.45 using a Biacore® T100 instrument (GE Healthcare). […] Antibodies were diluted to 25 nM in PBST pH 7.4, and were captured across active biosensor flow cells at 5 ul/min for 45 seconds. A concentration series of 100 - 0.78 nM monovalent hVISTA-ECD (SEQ ID NO: 325) was prepared pH 7.4, 6.9, 6.45 and 6.0 running buffers, and was injected over the captured antibodies at 40 ul/min to measure association and dissociation. Two 15 second injections of 10 mM glycine pH 1.5 were used to regenerate the Protein A capture surface between assay cycles. Rate constants ka (kₒₙ) and kd (koff) were derived from reference flow cell and 0 nM blank-subtracted sensorgrams, and were fit to a 1:1 binding model in Biacore® T200 Evaluation Software v.2.0. The affinity constant, KD was calculated as the ratio of rate constants koff/kₒₙ for each VISTA antibody. Ratios of koff and KD at each pH relative to pH 6.0 were calculated to evaluate how the VISTA koff and KD change as the buffer pH shifts to physiological, and are shown in Table 7. […] As the buffer pH shifts from acidic to physiological, VISTA koff and KD both weaken for ‘761 and ‘767. Physiological pH data for ‘761 and ‘767 for comparison is referenced from Table 7 and noted with an asterisk (*).

[3] = target: T2, avidin (ThermoFisher Scientific catalog #21128) (UniProt P02701 25-152); assay: SPR 25C, Ab on Protein A, pH 6 and pH 7.4
T2 construct: pI control protein
T2 sequence (P02701 25-152 limits assumed): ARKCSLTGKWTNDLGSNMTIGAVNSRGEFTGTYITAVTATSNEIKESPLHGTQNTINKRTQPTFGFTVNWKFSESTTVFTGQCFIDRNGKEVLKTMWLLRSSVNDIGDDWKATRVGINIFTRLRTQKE

[4] = target: T3, BSA (Calbiochem catalog #126593) (UniProt P02769 25-607); assay: SPR 25C, Ab on Protein A, pH 6 and pH 7.4
T3 construct: pI control protein
T3 sequence (P02769 25-607 limits assumed): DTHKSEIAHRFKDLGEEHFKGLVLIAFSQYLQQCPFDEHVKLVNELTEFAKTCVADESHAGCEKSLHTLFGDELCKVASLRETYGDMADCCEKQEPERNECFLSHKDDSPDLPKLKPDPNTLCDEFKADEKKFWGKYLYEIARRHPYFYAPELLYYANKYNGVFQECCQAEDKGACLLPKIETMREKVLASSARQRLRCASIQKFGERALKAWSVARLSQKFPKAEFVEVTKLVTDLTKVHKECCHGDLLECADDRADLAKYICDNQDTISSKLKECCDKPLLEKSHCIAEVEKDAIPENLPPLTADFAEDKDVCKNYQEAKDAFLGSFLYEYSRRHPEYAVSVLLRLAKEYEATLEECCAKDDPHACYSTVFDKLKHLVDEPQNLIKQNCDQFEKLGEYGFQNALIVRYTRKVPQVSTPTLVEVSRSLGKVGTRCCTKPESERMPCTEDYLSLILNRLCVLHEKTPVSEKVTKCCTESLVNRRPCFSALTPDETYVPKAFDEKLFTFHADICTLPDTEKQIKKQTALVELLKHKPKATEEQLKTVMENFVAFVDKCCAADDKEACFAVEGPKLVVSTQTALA

[5] = target: T1, monovalent hVISTA-ECD (amino acids …); assay: SPR 37C, Ab on Protein A, hVISTA-ECD 100-0.78 nM, pH 6.0
Description: For this assay, ‘029, ‘761 and ‘767were reformatted as hIgG1f isotype and were expressed as both standard hIgG1f and in hIgG1f afucosylated formats to compare against the hIgG1.3f Fc. An SPR kinetics assay was conducted to measure koff and KD binding affinity measurements for VISTA Abs at acidic and physiological pH using a Biacore® T100 instrument (GE Healthcare). […] Antibodies were diluted to 25 nM in PBST pH 7.4, and were captured across active biosensor flow cells at 5 ul/min for 45 seconds. A concentration series of 1600 - 0.78 nM (pH 7.4) and 100 - 0.78 nM (pH 6.0) monovalent hVISTA-ECD (SEQ ID NO: 325) was prepared running buffer, and was injected over the captured antibodies at 40 ul/min to measure association and dissociation. Two 15 second injections of 10 mM glycine pH 1.5 were used to regenerate the Protein A capture surface between assay cycles. Rate constants ka (kₒₙ) and kd (koff) were derived from reference flow cell and 0 nM blank-subtracted sensorgrams, and were fit to a 1:1 binding model in Biacore® T200 Evaluation Software v.2.0. The affinity constant, KD was calculated as the ratio of rate constants koff/kₒₙ for each VISTA antibody. Ratios of koff and KD at pH 7.4 / pH 6.0 were calculated to compare off-rate and affinity improvement at acidic pH relative to physiological pH.

[6] = target: T1, monovalent hVISTA-ECD (amino acids …); assay: SPR 37C, Ab on Protein A, hVISTA-ECD 50-0.2 nM, column headed pH 7 (running buffer pH 7.4 in the text)
Description: Surface plasmon resonance (SPR) analysis was performed to measure the association rates (defined as ka or kₒₙ, 1/Ms units), dissociation rates (defined as kd or koff, s⁻¹ units) and affinity constants (defined as KD, M units) for VISTA Abs at acidic and physiological pHs using a Biacore® T200 instrument (GE Healthcare). […] Antibodies were diluted to 20 nM in PBST pH 7.4, and were captured across active biosensor flow cells at 5 ul/min for 50 seconds. A concentration series of 50 - 0.2 nM monovalent hVISTA-ECD (SEQ ID NO: 325) was prepared in pH 7.4 and 6.0 running buffers, and was injected over the captured antibodies at 40 ul/min to measure association and dissociation. Two 15 second injections of 10 mM glycine pH 1.5 were used to regenerate the Protein A capture surface between assay cycles. Rate constants kₐ (kₒₙ) and kd (kₒff) were derived from reference flow cell and 0 nM blank-subtracted sensorgrams, and were fit to a 1:1 binding model in Biacore® T200 Evaluation Software v.2.0.

[7] = target: T1, monovalent hVISTA-ECD (amino acids …); assay: SPR 37C, Ab on Protein A, hVISTA-ECD 100-0.78 nM, pH 6.0; remark: listed apart in the source
Description: as §1

[8] = target: T1, monovalent hVISTA-ECD (amino acids …); assay: SPR 37C, pH 7.4 *, value referenced from the 1600 nM assay (same as the 4th table r7)
[9] = target: T1, monovalent hVISTA-ECD (amino acids …); assay: SPR 37C, pH 7.4 * over pH 6.0

T1 sequence (Q9H7M9 other isoform, or with tags, fused parts or gaps limits assumed): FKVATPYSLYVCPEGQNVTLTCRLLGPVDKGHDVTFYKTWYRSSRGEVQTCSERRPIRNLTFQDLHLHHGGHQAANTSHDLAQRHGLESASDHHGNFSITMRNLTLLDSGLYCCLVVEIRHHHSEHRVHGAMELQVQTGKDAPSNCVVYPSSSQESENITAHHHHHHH

KD ratio to pH 6.0 [1]: 13.2
koff ratio to pH 6.0 [1]: 1.1
Kd [2]: 26 nM
koff [2]: 0.0064 s⁻¹
kon [2]: 250000 M⁻¹ s⁻¹
Kd [5]: 7.2 nM
koff [5]: 0.0079 s⁻¹
kon [5]: 1.1e+06 M⁻¹ s⁻¹
koff [6]: 0.0091 s⁻¹
Kd [7]: 2 nM
koff [7]: 0.0057 s⁻¹
kon [7]: 2.9e+06 M⁻¹ s⁻¹
B1: P1-061029.IgG1.3 (antibody)
heavy: EVQLVESGGGLVQPGKSLRLSCAASGFTLDDYAMHWVRQAPGKGLEWVSGINWNSANIGYADSVKGRFTISRDNAKNSLYLQMNSLRTEDTALYYCAKVPGYSGGWIDAFDVWGQGTMVTVSSASTKGPSVFPLAPSSKSTSGGTAALGCLVKDYFPEPVTVSWNSGALTSGVHTFPAVLQSSGLYSLSSVVTVPSSSLGTQTYICNVNHKPSNTKVDKRVEPKSCDKTHTCPPCPAPEAEGAPSVFLFPPKPKDTLMISRTPEVTCVVVDVSHEDPEVKFNWYVDGVEVHNAKTKPREEQYNSTYRVVSVLTVLHQDWLNGKEYKCKVSNKALPAPIEKTISKAKGQPREPQVYTLPPSREEMTKNQVSLTCLVKGFYPSDIAVEWESNGQPENNYKTTPPVLDSDGSFFLYSKLTVDKSRWQQGNVFSCSVMHEALHNHYTQKSLSLSPG
light: not shown
notes: IgG1.3; also called P1-061029 (parent); P1-061029-18
binding result [3]: no binding (tested: 10 RU; analyte 100-10 nM)
binding result [4]: no binding (tested: 10 RU; analyte 100-10 nM)

Kd [8]: 11000 nM
koff [8]: 0.042 s⁻¹
kon [8]: 3800 M⁻¹ s⁻¹
KD ratio to pH 6.0 [9]: ~10000
koff ratio to pH 6.0 [9]: ~63.6
Kd [5]: 4.3 nM
koff [5]: 0.0016 s⁻¹
kon [5]: 370000 M⁻¹ s⁻¹
Kd [7]: 1.1 nM
koff [7]: 0.00066 s⁻¹
kon [7]: 600000 M⁻¹ s⁻¹
B2: P1-068761.IgG1.3 (antibody)
heavy: B1 heavy with D30E, Y32E, A56E, N57E, G104H, F110E
light: not shown
notes: IgG1.3; also called P1-068761-20; P1-068761 hIgG1.3f
binding result [3]: no binding (tested: 10 RU; analyte 100-10 nM)
binding result [4]: no binding (tested: 10 RU; analyte 100-10 nM)

Reference: patent publication US20230192860A1 (Bristol-Myers Squibb, published 2023)
